Like-named read-outs stand apart in the source and are kept apart here.
Assays:
Recombinant human IL-18 [1] = biological target: T1, Recombinant human IL-18 (human, UniProt Q14116 37-193); experiment: solution equilibrium titration (SET), ECL detection
T1 construct: Used unlabeled or biotinylated depending on the assay step; also called Hu IL-18; hr IL-18
T1 sequence: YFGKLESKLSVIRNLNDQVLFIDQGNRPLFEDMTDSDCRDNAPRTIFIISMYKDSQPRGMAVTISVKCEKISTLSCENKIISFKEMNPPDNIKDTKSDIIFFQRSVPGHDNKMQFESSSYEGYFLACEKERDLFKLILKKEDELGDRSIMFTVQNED

IL-18/IL-18BP complex = biological target: T2, IL-18/IL-18BP complex (human, UniProt O95998 31-194, biotinylated in the first ELISA setup, unbiotinylated in the second); experiment: ELISA, first set-up: antibody titrated and incubated with the biotinylated human IL-18/rhIL-18BP-Fc complex, captured on NeutrAvidin plate, AP-labelled anti-human F(ab)2, AttoPhos fluorescence [A]
T2 construct: also called biotinylated IL-18/IL18-BP complex; not shown: human IgG1 Fc tag
T2 sequence 1: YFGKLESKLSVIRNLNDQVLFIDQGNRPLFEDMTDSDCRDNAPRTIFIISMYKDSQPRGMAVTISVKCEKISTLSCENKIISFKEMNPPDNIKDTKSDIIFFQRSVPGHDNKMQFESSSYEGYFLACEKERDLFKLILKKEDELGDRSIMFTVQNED
T2 sequence 2: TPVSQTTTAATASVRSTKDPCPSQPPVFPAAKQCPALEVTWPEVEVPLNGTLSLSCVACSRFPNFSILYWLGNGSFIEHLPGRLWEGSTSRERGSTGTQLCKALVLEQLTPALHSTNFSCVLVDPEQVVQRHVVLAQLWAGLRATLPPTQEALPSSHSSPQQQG

Recombinant human IL-18 [2] = biological target: T1, Recombinant human IL-18; experiment: cell-based or functional assay
Native human IL-18 [3] = biological target: T3, Native human IL-18 (human, UniProt Q14116 37-193); experiment: cell-based or functional assay
T3 sequence: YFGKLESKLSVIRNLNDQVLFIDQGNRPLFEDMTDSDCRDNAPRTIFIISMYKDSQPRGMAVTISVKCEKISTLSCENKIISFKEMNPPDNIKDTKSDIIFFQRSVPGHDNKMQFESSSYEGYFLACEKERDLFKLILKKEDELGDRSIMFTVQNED

[4] = biological target: T4, Recombinant cynomolgus IL-18 (cynomolgus monkey, UniProt Q14116 37-193 (human entry)); experiment: cell-based or functional assay
T4 chain: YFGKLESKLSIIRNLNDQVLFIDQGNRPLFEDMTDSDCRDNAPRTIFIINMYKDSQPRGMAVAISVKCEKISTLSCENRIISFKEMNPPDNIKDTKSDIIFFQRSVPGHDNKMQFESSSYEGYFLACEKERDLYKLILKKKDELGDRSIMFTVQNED

[5] = biological target: T4, Recombinant cynomolgus IL-18; experiment: ratio of SET KD values, cynomolgus against human IL-18
Recombinant human IL-18 [6] = biological target: T1, Recombinant human IL-18; experiment: solution equilibrium titration (SET), ECL detection; human IL-18; unbracketed value, column Hu IL-18
Recombinant human IL-18 [7] = biological target: T1, Recombinant human IL-18; experiment: cell-based or functional assay; remark: listed apart in the source
Native human IL-18 [8] = biological target: T3, Native human IL-18; experiment: cell-based or functional assay; remark: listed apart in the source
Recombinant human IL-18 [9] = biological target: T1, Recombinant human IL-18; experiment: cell-based or functional assay; remark: listed apart in the source
Native human IL-18 [10] = biological target: T3, Native human IL-18; experiment: cell-based or functional assay; remark: listed apart in the source
[11] = biological target: T4, Recombinant cynomolgus IL-18; experiment: solution equilibrium titration (SET), ECL detection; value in brackets = cynomolgus IL-18; bracketed value

B1: MOR08776 (antibody, human IgG1, lambda, V domains shown)
VH: QVQLQESGPGLVKPGETLSLTCTVSGGSISTGSYYWNWIRQAPGKGLEWIGEINHMGITYYNPSLKGRVTISVDTSKNQFSLKLSSVTAEDTAVYYCARTTRYWMSHILAYGMDYWGQGTLVTVSS
VL: DIVLTQPPSVSGAPGQRVTISCSGSSSNIGNHYVSWYQQLPGTAPKLLIYANTKRPSGVPDRFSGSKSGTSASLAITGLQSEDEADYYCSSYDGSQSIVFGGGTKLTVLG
notes: also called MOR8776
- Kd (Recombinant human IL-18 [1]): 0.038 nM
- binding result (IL-18/IL-18BP complex): no binding (tested: about 800 nM)
- IC50, inhibition of IFN-γ release, KG-1 cells, Hu IL-18 (1 nM) (Recombinant human IL-18 [2]): 18 nM
- IC50, inhibition of IFN-γ release, PBMC, Hu IL-18 (recombinant) (Recombinant human IL-18 [2]): 50.8 nM
- IC50, inhibition of IFN-γ release, PBMC, Native IL-18 (LPS/IL-12) (Native human IL-18 [3]): 5.9 nM

B2: MOR08775 (antibody, human IgG1, lambda, V domains shown)
VH: QVQLVQSGAEVKKPGSSVKVSCKASGGTFNSYAISWVRQAPGQGLEWMGGIIPIYGTANYAQKFQGRVTITADESTSTAYMELSSLRSEDTAVYYCARAAYHPLVFDNWGQGTLVTVSS
VL: DIVLTQPPSVSGAPGQRVTISCSGSSSNIGNHYVNWYQQLPGTAPKLLIYRNNHRPSGVPDRFSGSKSGTSASLAITGLQSEDEADYYCQSWDYSGFSTVFGGGTKLTVLG
notes: also called MOR8775
- Kd (Recombinant human IL-18 [1]): 0.065 nM
- binding result (IL-18/IL-18BP complex): no binding (tested: about 800 nM)
- IC50, inhibition of IFN-γ release, KG-1 cells, Hu IL-18 (1 nM) (Recombinant human IL-18 [2]): 68 nM
- IC50, inhibition of IFN-γ release, PBMC, Hu IL-18 (recombinant) (Recombinant human IL-18 [2]): 9.2 nM
- IC50, inhibition of IFN-γ release, KG-1 cells, Cyno IL-18 [4]: 22 nM
- IC50, inhibition of IFN-γ release, PBMC, Native IL-18 (LPS/IL-12) (Native human IL-18 [3]): 0.7 nM

B3: MOR9464_N30K (antibody, human IgG1, lambda, L234A L235A, V domains shown)
VH: EVQLVQSGAEVKKPGSSVKVSCKASGGTFKSYAISWVRQAPGQGLEWMGNIIPMTGQTYYAQKFQGRVTITADESTSTAYMELSSLRSEDTAVYYCARAAYHPLVFDNWGQGTLVTVSS
VL: DIVLTQPPSVSGAPGQRVTISCSGSSSNIGNHYVNWYQQLPGTAPKLLIYRNNHRPSGVPDRFSGSKSGTSASLAITGLQSEDEADYYCQSWDYSGFSTVFGGGTKLTVLG
notes: also called MOR09464_N30K
- fold weaker than against human IL-18 [5]: 10 fold
- Kd (Recombinant human IL-18 [6]): 0.002 nM
- IC50, inhibition of IFN-γ release, KG-1 cells, Hu IL-18 (1 nM) (Recombinant human IL-18 [2]): 0.36 nM
- IC50, inhibition of IFN-γ release, KG-1 cells, Cyno IL-18 [4]: 4.7 nM
- IC50, inhibition of IFN-γ release, PBMC, Native IL-18 (LPS/IL-12) (Native human IL-18 [3]): 0.2 nM
- IC50, inhibition of IFN-γ release, human whole blood, recombinant human IL-18 (7 nM) (Recombinant human IL-18 [7]): 8.62 nM
- IC50, inhibition of IFN-γ release, human whole blood, LPS/IL-12 (native IL-18) (Native human IL-18 [8]): 17.1 nM
- IC50, inhibition of IFN-γ release, KG-1 cells, Hu IL-18 (1 nM) (Recombinant human IL-18 [9]): 0.36 nM
- IC50, inhibition of IFN-γ release, PBMC, Native IL-18 (LPS/IL-12) (Native human IL-18 [10]): 0.2 nM
- Kd [11]: 0.02 nM

— US20140112915A1 (Novartis, published 2014)
